Columns and labels:
[1] = molecular target: human transferrin receptor (TfR) (human) (UniProt P02786); assay: FACS on DU145 cells, percent of cells above the fluorescence threshold
[2] = molecular target: human transferrin receptor (TfR) (human) (UniProt P02786); assay: FACS on JSQ-3 cells, percent of cells above the fluorescence threshold
[3] = molecular target: human transferrin receptor (TfR) (human) (UniProt P02786); assay: indirect cellular ELISA on fixed JSQ-3 cells; highest concentration of Hb21 (100 µl), positive control
[4] = molecular target: human transferrin receptor (TfR) (human) (UniProt P02786); assay: indirect cellular ELISA on fixed JSQ-3 cells, anti-His detection; 1.5 µg of protein
[5] = molecular target: human transferrin receptor (TfR) (human) (UniProt P02786); assay: indirect cellular ELISA on fixed JSQ-3 cells, anti-His detection
[6] = molecular target: human transferrin receptor (TfR) (human) (UniProt P02786); assay: indirect cellular ELISA on fixed JSQ-3 cells, anti-His detection; 0.6 µg of protein
[7] = molecular target: human transferrin receptor (TfR) (human) (UniProt P02786); assay: indirect cellular ELISA on fixed JSQ-3 cells, anti-His detection; 3 µg of protein

Chain of human transferrin receptor (TfR) (human) (P02786 whole entry): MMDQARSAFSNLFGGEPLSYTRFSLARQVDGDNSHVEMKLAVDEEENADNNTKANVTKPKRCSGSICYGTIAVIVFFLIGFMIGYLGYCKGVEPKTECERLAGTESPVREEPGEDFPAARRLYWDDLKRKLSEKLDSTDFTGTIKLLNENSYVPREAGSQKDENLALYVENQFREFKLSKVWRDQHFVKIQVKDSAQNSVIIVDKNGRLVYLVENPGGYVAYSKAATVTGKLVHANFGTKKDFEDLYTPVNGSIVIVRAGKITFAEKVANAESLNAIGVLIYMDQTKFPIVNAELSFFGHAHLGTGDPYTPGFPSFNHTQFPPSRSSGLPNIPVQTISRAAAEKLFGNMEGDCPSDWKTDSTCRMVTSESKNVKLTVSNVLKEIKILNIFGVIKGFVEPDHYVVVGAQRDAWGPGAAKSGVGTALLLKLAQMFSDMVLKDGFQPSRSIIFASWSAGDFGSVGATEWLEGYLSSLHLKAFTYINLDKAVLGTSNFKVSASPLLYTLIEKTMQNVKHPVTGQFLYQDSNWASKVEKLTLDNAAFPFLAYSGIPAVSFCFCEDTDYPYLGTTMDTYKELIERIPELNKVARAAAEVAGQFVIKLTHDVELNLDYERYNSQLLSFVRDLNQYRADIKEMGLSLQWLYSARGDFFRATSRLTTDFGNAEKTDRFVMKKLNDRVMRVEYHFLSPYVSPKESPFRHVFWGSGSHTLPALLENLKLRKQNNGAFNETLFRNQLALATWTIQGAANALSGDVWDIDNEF

| % Positive [1] [%] | % Positive [2] [%] | OD490 [3] [OD490] | OD490 [4] [OD490] | OD490 [5] [OD490] | OD490 [6] [OD490] | OD490 [7] [OD490] | Substance |
| --- | --- | --- | --- | --- | --- | --- | --- |
| 98.7 | 99.4 | 0.033 | – | – | – | – | HB21 anti-transferrin receptor monoclonal antibody |
| – | – | – | 0.1 | 0.235 | 0.06 | 0.132 | TfRscFv containing a C-terminal cysteine, with a His tag |
